Key:
[1] = molecular target: M.EcoKI, DNA methyltransferase component (M2S1) of the EcoKI type I R/M system (E. coli K12) (UniProt P08957); experiment: fluorescence polarisation; competition with DNA: M.EcoKI titrated into 50 nM Ocr and 2 nM of a 21-bp DNA duplex fluorescently labelled at the 5' end; anisotropy of the DNA monitored
[2] = molecular target: M.EcoKI, DNA methyltransferase component (M2S1) of the EcoKI type I R/M system (E. coli K12) (UniProt P08957); experiment: ITC; Ocr (typically 40 uM) titrated into M.EcoKI (4 uM); 20 mM Tris-HCl pH 8.0, 6 mM MgCl2, 7 mM 2-mercaptoethanol, 100 uM SAM, with or without 500 mM NaCl; 10 to 30 °C
[3] = system: M.EcoKI (M2S1 methyltransferase core of EcoKI); experiment: fluorescence anisotropy; parameters: unit not given here; settings: Anisotropy: M.EcoKI titrated into 2 nM labelled duplex (with 50 nM Ocr in the competition series); buffer and temperature not given (ref. 12). ITC buffer …
[4] = molecular target: T1, M.EcoKI methyltransferase (M2S1 core of the EcoKI type I restriction/modification enzyme) (UniProt P05719+P08957); experiment: ITC; settings: pH 8.0, 25 °C, no NaCl, 6 mM MgCl2
[5] = molecular target: T1, M.EcoKI methyltransferase (M2S1 core of the EcoKI type I restriction/modification enzyme); experiment: ITC in two buffers of different ionisation enthalpy (comparison of C1 and C2); settings: pH 8.0; 25 °C; no NaCl; 6 mM MgCl2; 20 mM Tris-HCl pH 8.0 (47.4 kJ/mol) versus 20 mM Hepes (20.5 kJ/mol)

Row | Kd [1] | Substance | further results
1 | 12.6 nM | Ocr chemically modified with EDC/HOBt and ammonium hydroxide for 180 min (N-series) (from UniProt P03775 1-117) (natural protein) | –
2 | 2.64 nM | Ocr chemically modified with EDC/HOBt and dimethylamine for 15 min (D-series) (from UniProt P03775 1-117) (natural protein) | stoichiometry N (Ocr dimer per molecule of M.EcoKI) [2]: 1
3 | 5.8 nM | Ocr chemically modified with EDC/HOBt and dimethylamine for 30 min (D-series) (from UniProt P03775 1-117) (natural protein) | –
4 | 23.1 nM | Ocr chemically modified with EDC/HOBt and dimethylamine for 120 min (D-series) (from UniProt P03775 1-117) (natural protein) | –
5 | – | 21-bp DNA duplex | Kd [3]: 2.1
6 | 0.56 nM | Ocr chemically modified with EDC/HOBt and ammonium hydroxide for 15 min (N-series) (from UniProt P03775 1-117) (natural protein) | –
7 | – | Ocr (overcome classical restriction; gene 0.3 protein), unmodified wild type | ΔH ([4]; 20 mM Hepes in place of Tris-HCl (heat of ionization = 20.5 kJ/mol as printed), pH not restated, taken as 8.0): − 90.0 kJ/mol; ΔH ([4]; 20 mM Tris-HCl, pH 8.0 (heat of ionization = 47.4 kJ/mol as printed)): − 86.2 kJ/mol; net protonation change on binding (no number given) [5]: 0 protons
8 | 19.7 nM | Ocr chemically modified with EDC/HOBt and dimethylamine for 60 min (D-series) (from UniProt P03775 1-117) (natural protein) | –
9 | 1.9 nM | Ocr chemically modified with EDC/HOBt and ammonium hydroxide for 60 min (N-series) (from UniProt P03775 1-117) (natural protein) | stoichiometry N (Ocr dimer per molecule of M.EcoKI) [2]: 1
10 | 3.77 nM | Ocr chemically modified with EDC/HOBt and ammonium hydroxide for 120 min (N-series) (from UniProt P03775 1-117) (natural protein) | –
11 | 1.82 nM | Ocr chemically modified with EDC/HOBt and ammonium hydroxide for 30 min (N-series) (from UniProt P03775 1-117) (natural protein) | –
12 | 26.6 nM | Ocr chemically modified with EDC/HOBt and dimethylamine for 180 min (D-series) (from UniProt P03775 1-117) (natural protein) | –

Reference: publication PMC2806950
